{"source": "the nanobody polyreactivity screen of Harvey et al. (2022)", "data": [{"assay": "yeast display, Sf9 membrane polyspecificity reagent, FACS + sequencing; frameworks hold sequencing errors", "how_it_was_run": "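Nanobodies came from a synthetic yeast display library in Saccharomyces cerevisiae BJ5465, induced with galactose for 36–48 hours and stained for 1 hour at 4 °C with 10% biotinylated, detergent-solubilized Sf9 membrane reagent. Cells were enriched on streptavidin microbeads and then FACS-sorted, with low and high (top ~1%) gates set on anti-HA fluorescence for expression and streptavidin fluorescence for reagent binding. Each polyreactivity label reflects the gate a clone came from. Genes were amplified by colony PCR, sequenced by MiSeq 2 × 250 and filtered by CDR length.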", "values": [{"sequence": "QVQLVESGGGLVQAGGSLRLSCAASGRTFRANTMGWYRLAPGKERELVAAISHSGGSTYYADSVKGRFTISRDNAKNTVYLQMNSLKPEDTAVYYCATDGGSYSWASPRVDYWGQGTQVTVSS", "polyreactivity (PSR sort gate)": "low polyreactivity"}, {"sequence": "QVQLVESGGGLVQAGGSLRLSCAASGRTFRANTMGWYRQAPGKERELVAAITWSGASTYYADSVKGRFTISRDNAKNTVYLQMNSLKPEDTAVYYCNAGWDSGIVQSDETVYKYDYWGQGTQVTVSS", "polyreactivity (PSR sort gate)": "low polyreactivity"}, {"sequence": "QVQLVESGGGLVQAGGSLRLSCAASGRTFRAYAMGWYRQAPGKERELVAAISSRGGSTYYADSVKGRFTISRDNAKNTVYLQMNSLKPEDTAVYYCNVDRYVRGLITFDYWGQGTQVTVSS", "polyreactivity (PSR sort gate)": "high polyreactivity"}, {"sequence": "QVQLVESGGGLVQAGGSLRLSCAASGRTFRAYAMGWYRQAPGKERELVAGITSGGSTNYADSVKGRFTISRDNAKNTVYLQMNSLKPEDTAVYYCAARRGTYRYRYDYWGQGTQVTVSS", "polyreactivity (PSR sort gate)": "high polyreactivity"}, {"sequence": "QVQLVESGGGLVQAGGSLRLSCAASGRTFRAYAMGWYRQAPGKERELVASISRGGSTKYADSVKGRFTISRDNAKNTVYLQMNSVKPEDTAVYYCAADRLRDGVDYWGQGTQVTVSS", "polyreactivity (PSR sort gate)": "low polyreactivity"}, {"sequence": "QVQLVESGGGLVQAGGSLRLSCAASGRTFRAYTMGWYRQAPGKERELVAAISTPGGSTYYADSVKGRFTISRDNAKNTVYLQMNSLKPEDTAVYYCAADRYYWGQGTQVTVSS", "polyreactivity (PSR sort gate)": "low polyreactivity"}, {"sequence": "QVQLVESGGGLVQAGGSLRLSCAASGRTFREYAMGWYRHAPGKEREFVAAISESVGSTYYADSVKGRFTISRDNAKNTVYLQMNSLKPEDTAVYYCAKQSRYPSLDADYDYWGQGTQVTVSS", "polyreactivity (PSR sort gate)": "low polyreactivity"}, {"sequence": "QVQLVESGGGLVQAGGSLRLSCAASGRTFRFYAMGWYRPAPGKERELVAGITRSGGGTYYADSVKGRFTISRDNAKNTVYLQMNSLKPEDTAVYYCAATHAYLGYGYWGQGTQVTVSS", "polyreactivity (PSR sort gate)": "high polyreactivity"}, {"sequence": "QVQLVESGGGLVQAGGSLRLSCAASGRTFRFYDMGWYRQAPGKERELVAAISRGGGSTYYADSVKGRFTISRDNAKNTVYLQMNSLKPEDTAVYYCAAKPYKTRSSYWGDYYWGQGTQVTVSS", "polyreactivity (PSR sort gate)": "high polyreactivity"}, {"sequence": "QVQLVESGGGLVQAGGSLRLSCAASGRTFRGNALGWYRQAHGKERELVAAITGTGGSTYYADSVKGRFTISRDNAKNTVYLQRNRLKPEDTAVYYCAAVLRGHNGLKFEYWGQGTQVTVSS", "polyreactivity (PSR sort gate)": "high polyreactivity"}, {"sequence": "QVQLVESGGGLVQAGGSLRLSCAASGRTFRGNAMGWYRQAPGKERELVAAIRWNGGSTYYADSVKGRFTISRDNAKNTVYLQMNSLKPEDTAVYYCAVLRLDYWGQGTQVTVSS", "polyreactivity (PSR sort gate)": "high polyreactivity"}, {"sequence": "QVQLVESGGGLVQAGGSLRLSCAASGRTFRGYAMGWYRQAPGKERELVAAISVTGSSTNYADSVKGRFTISRDNAKNTVYLQMNSLKPEDTAVYYCAASYRLYKYDYWGQGTQVTVSS", "polyreactivity (PSR sort gate)": "high polyreactivity"}, {"sequence": "QVQLVESGGGLVQAGGSLRLSCAASGRTFRGYAMGWYRQAPGKERELVAAISVTGSSTNYADSVKGRFTISRDNAKNTVYLQMNSLKPEDTAVYYCNAKRVRYSLSYDYWGQGTQVTVSS", "polyreactivity (PSR sort gate)": "high polyreactivity"}, {"sequence": "QVQLVESGGGLVQAGGSLRLSCAASGRTFRGYAMGWYRQAPGKERELVAAITRSGGSTYADSVKGRFTISRDNAKNTFYLQMNSLKPEDTAVYYCAADRGYKYYYWGQGTQVTVSS", "polyreactivity (PSR sort gate)": "high polyreactivity"}, {"sequence": "QVQLVESGGGLVQAGGSLRLSCAASGRTFRGYVMGWYRQAPGKEREFVAAITRSDGSTYYADSVKGRFTISRDNAKNTVYLQMNSLKPEDTAVYYCAADLRRFQSYYYWGQGTQVTVSS", "polyreactivity (PSR sort gate)": "high polyreactivity"}, {"sequence": "QVQLVESGGGLVQAGGSLRLSCAASGRTFRGYVMGWYRQAPGKERELVAAISKSGGSTYYADSVKGRFTISRDNAKNTVYLQMNSLKPEDTAVYYCAKNYRYYVFYDGFDYWGQGTQVTVSS", "polyreactivity (PSR sort gate)": "low polyreactivity"}]}]}
